Measured values taken from the PETadex activity labels (doi:10.3389/fbioe.2022.865787).
Residue numbers refer to the chain shown, from its start.

Tests used:
[1] = substrate: p-NP-C10; settings: pH 8; 35 °C
[2] = substrate: p-NP-C12; settings: pH 8; 35 °C
[3] = substrate: p-NP-C14; settings: pH 8; 35 °C
[4] = substrate: p-NP-C16; settings: pH 8; 35 °C
[5] = substrate: p-NP-C18; settings: pH 8; 35 °C
[6] = substrate: p-NP-C2; settings: pH 8; 35 °C
[7] = substrate: p-NP-C4; settings: pH 8; 35 °C
[8] = substrate: p-NP-C6; settings: pH 8; 35 °C
[9] = substrate: p-NP-C8; settings: pH 8; 35 °C
[10] = substrate: pNPB; assay: Proxy for plastic degradation [Absorbance @ 405nm]
[11] = substrate: PET; assay: Proxy for plastic degradation [Released monomer concentration (HPLC/LC-MS) (TPA)]; settings: pH 8.5
[12] = substrate: PET; assay: Proxy for plastic degradation [Released monomer concentration (HPLC/LC-MS) (BHET)]; settings: pH 8.5
[13] = substrate: PET; assay: Proxy for plastic degradation [Released monomer concentration (HPLC/LC-MS) (MHET)]; settings: pH 8.5
[14] = substrate: PET; assay: Proxy for plastic degradation [Released monomer concentration (HPLC/LC-MS) (Total aromatic products)]; settings: pH 8.5

B1: unnamed (protein)
chain: MLTHSISPEETDGGRRTPLSRMSRLAARVGVTLSLAAGLTAGVTAPAHASNPYERGPAPTESSVTAVRGYFDTDTDTVSSLVSGFGGGTIYYPTDTSEGTFGGVVIAPGYTASQSSMAWMGHRIASQGFVVFTIDTITRYDQPDSRGRQIEAALDYLVEDSDVADRVDGNRLAVMGHSMGGGGTLAAAENRPELRAAIPLTPWHLQKNWSDVEVPTMIIGAENDTVASVRTHSIPFYESLDEDLERAYLELDGASHFAPNISNTVIAKYSISWLKRFVDEDERYEQFLCPPPDTGLFSDFSDYRDSCPHTT
[1]
  Km: 4.93 mM
  kcat: 69.9 s⁻¹
  kcat/Km: 14200 s⁻¹ M⁻¹
[2]
  Km: 1.68 mM
  kcat: 30.5 s⁻¹
  kcat/Km: 18200 s⁻¹ M⁻¹
[3]
  Km: 190 µM
  kcat: 9.87 s⁻¹
  kcat/Km: 51900 s⁻¹ M⁻¹
[4]
  Km: 150 µM
  kcat: 4.79 s⁻¹
  kcat/Km: 31900 s⁻¹ M⁻¹
[5]
  Km: 450 µM
  kcat: 14.3 s⁻¹
  kcat/Km: 31800 s⁻¹ M⁻¹
[6]
  Km: 550 µM
  kcat: 4.47 s⁻¹
  kcat/Km: 8130 s⁻¹ M⁻¹
[7]
  Km: 1.33 mM
  kcat: 14.1 s⁻¹
  kcat/Km: 10600 s⁻¹ M⁻¹
[8]
  Km: 4.61 mM
  kcat: 41.7 s⁻¹
  kcat/Km: 9050 s⁻¹ M⁻¹
[9]
  Km: 2.55 mM
  kcat: 79.4 s⁻¹
  kcat/Km: 31100 s⁻¹ M⁻¹
[10]; pH 8
  Proxy for plastic degradation: 100%
[10]; pH 8, 0 h
  Proxy for plastic degradation: 100%
[10]; pH 8.5
  Proxy for plastic degradation: 97.5%
[11]; 12 h
  Proxy for plastic degradation: 5 µM
[11]; 24 h
  Proxy for plastic degradation: 12.5 µM
[11]; 36 h
  Proxy for plastic degradation: 25 µM
[11]; 48 h
  Proxy for plastic degradation: 50 µM
[11]; 60 h
  Proxy for plastic degradation: 70 µM
[11]; 72 h
  Proxy for plastic degradation: 75 µM
[11]; 84 h
  Proxy for plastic degradation: 120 µM
[11]; 96 h
  Proxy for plastic degradation: 150 µM
[11]; 108 h
  Proxy for plastic degradation: 180 µM
[12]
  Proxy for plastic degradation: 1 µM
[13]; 12 h
  Proxy for plastic degradation: 5 µM
[13]; 24 h
  Proxy for plastic degradation: 10 µM
[13]; 36 h
  Proxy for plastic degradation: 20 µM
[13]; 48 h
  Proxy for plastic degradation: 70 µM
[13]; 60 h
  Proxy for plastic degradation: 105 µM
[13]; 72 h
  Proxy for plastic degradation: 140 µM
[13]; 84 h
  Proxy for plastic degradation: 135 µM
[13]; 96 h
  Proxy for plastic degradation: 155 µM
[13]; 108 h
  Proxy for plastic degradation: 150 µM
[14]; 30 °C
  Proxy for plastic degradation: 45 µM
[14]; 35 °C
  Proxy for plastic degradation: 130 µM
[14]; 40 °C
  Proxy for plastic degradation: 230 µM
[14]; 45 °C
  Proxy for plastic degradation: 330 µM
[14]; 50 °C
  Proxy for plastic degradation: 100 µM

B2: unnamed (protein)
chain: B1 chain with S301A
[10]; pH 8, 0 h
  Proxy for plastic degradation: 100%
[10]; pH 8, 5 °C
  Proxy for plastic degradation: 42.5%
[10]; pH 8, 10 °C
  Proxy for plastic degradation: 45%
[10]; pH 8, 15 °C
  Proxy for plastic degradation: 47.5%
[10]; pH 8, 20 °C
  Proxy for plastic degradation: 55%
[10]; pH 8, 25 °C
  Proxy for plastic degradation: 75%
[10]; pH 8, 30 °C
  Proxy for plastic degradation: 100%
[10]; pH 8, 35 °C
  Proxy for plastic degradation: 92.5%
[10]; pH 8, 40 °C
  Proxy for plastic degradation: 87.5%
[10]; pH 8, 45 °C
  Proxy for plastic degradation: 77.5%
[10]; pH 8, 50 °C
  Proxy for plastic degradation: 62.5%
[10]; pH 8, 55 °C
  Proxy for plastic degradation: 35%
[10]; pH 8, 60 °C
  Proxy for plastic degradation: 20%
[10]; pH 8, 65 °C
  Proxy for plastic degradation: 17.5%
[10]; pH 8, 70 °C
  Proxy for plastic degradation: 15%
[10]; pH 8, 20 h
  Proxy for plastic degradation: 87.5%
[10]; pH 8, 40 h
  Proxy for plastic degradation: 77.5%
[10]; pH 8, 60 h
  Proxy for plastic degradation: 65%
[10]; pH 8, 80 h
  Proxy for plastic degradation: 62.5%
[10]; pH 8, 100 h
  Proxy for plastic degradation: 60%
[10]; pH 8, 120 h
  Proxy for plastic degradation: 57.5%

B3: unnamed (protein)
chain: B1 chain with D252A
[10]; pH 8, 0 h
  Proxy for plastic degradation: 100%
[10]; pH 8, 5 °C
  Proxy for plastic degradation: 15%
[10]; pH 8, 10 °C
  Proxy for plastic degradation: 17.5%
[10]; pH 8, 15 °C
  Proxy for plastic degradation: 20%
[10]; pH 8, 20 °C
  Proxy for plastic degradation: 32.5%
[10]; pH 8, 25 °C
  Proxy for plastic degradation: 50%
[10]; pH 8, 30 °C
  Proxy for plastic degradation: 90%
[10]; pH 8, 35 °C
  Proxy for plastic degradation: 100%
[10]; pH 8, 40 °C
  Proxy for plastic degradation: 80%
[10]; pH 8, 45 °C
  Proxy for plastic degradation: 70%
[10]; pH 8, 50 °C
  Proxy for plastic degradation: 37.5%
[10]; pH 8, 55 °C
  Proxy for plastic degradation: 25%
[10]; pH 8, 60 °C
  Proxy for plastic degradation: 15%
[10]; pH 8, 65 °C
  Proxy for plastic degradation: 12.5%
[10]; pH 8, 70 °C
  Proxy for plastic degradation: 10%
[10]; pH 8, 20 h
  Proxy for plastic degradation: 75%
[10]; pH 8, 40 h
  Proxy for plastic degradation: 70%
[10]; pH 8, 60 h
  Proxy for plastic degradation: 55%
[10]; pH 8, 80 h
  Proxy for plastic degradation: 40%
[10]; pH 8, 100 h
  Proxy for plastic degradation: 35%
[10]; pH 8, 120 h
  Proxy for plastic degradation: 25%

B4: unnamed (protein)
chain: MNFPRASRLMQAAVLGGLMAVSAAATAQTNPYARGPNPTAASLEASAGPFTVRSFTVSRPSGYGAGTVYYPTNAGGTVGAIAIVPGYTARQSSIKWWGPRLASHGFVVITIDTNSTLDQPSSRSSQQMAALRQVASLNGTSSSPIYGKVDTARMGVMGWSMGGGGSLISAANNPSLKAAAPQAPWDSSTNFSSVTVPTLIFACENDSIAPVNSSALPIYDSMSRNAKQFLEINGGSHSCANSGNSNQALIGKKGVAWMKRFMDNDTRYSTFACENPNSTRVSDFRTANCS
[11]; 12 h, part of the chain shown
  Proxy for plastic degradation: 30 µM
[11]; 24 h, part of the chain shown
  Proxy for plastic degradation: 37.5 µM
[11]; 36 h, part of the chain shown
  Proxy for plastic degradation: 42.5 µM
[11]; 48 h, part of the chain shown
  Proxy for plastic degradation: 47.5 µM
[11]; 60 h, part of the chain shown
  Proxy for plastic degradation: 50 µM
[11]; 72 h, part of the chain shown
  Proxy for plastic degradation: 60 µM
[11]; 84 h, part of the chain shown
  Proxy for plastic degradation: 70 µM
[11]; 96 h, part of the chain shown
  Proxy for plastic degradation: 80 µM
[11]; 108 h, part of the chain shown
  Proxy for plastic degradation: 100 µM
[13]; 12 h, part of the chain shown
  Proxy for plastic degradation: 140 µM
[13]; 24 h, part of the chain shown
  Proxy for plastic degradation: 150 µM
[13]; 36 h, part of the chain shown
  Proxy for plastic degradation: 160 µM
[13]; 48 h, part of the chain shown
  Proxy for plastic degradation: 165 µM
[13]; 60 h, part of the chain shown
  Proxy for plastic degradation: 155 µM
[13]; 72 h, part of the chain shown
  Proxy for plastic degradation: 155 µM
[13]; 84 h, part of the chain shown
  Proxy for plastic degradation: 158 µM
[13]; 96 h, part of the chain shown
  Proxy for plastic degradation: 165 µM
[13]; 108 h, part of the chain shown
  Proxy for plastic degradation: 158 µM
[14]; 16 h, part of the chain shown
  Proxy for plastic degradation: 175 µM
[14]; 27.75 h, part of the chain shown
  Proxy for plastic degradation: 200 µM
[14]; 39.5 h, part of the chain shown
  Proxy for plastic degradation: 210 µM
[14]; 51.25 h, part of the chain shown
  Proxy for plastic degradation: 220 µM
[14]; 60 h, part of the chain shown
  Proxy for plastic degradation: 215 µM
[14]; 74.75 h, part of the chain shown
  Proxy for plastic degradation: 225 µM
[14]; 86.5 h, part of the chain shown
  Proxy for plastic degradation: 235 µM
[14]; 98.25 h, part of the chain shown
  Proxy for plastic degradation: 240 µM
[14]; 110 h, part of the chain shown
  Proxy for plastic degradation: 250 µM
